Experimental data taken from patent US20140357845A1.

How the values were obtained:
Assay in all cases: FACS
[1] = target: mini2 cluster11 + 5 (A/Brisbane/59/2007) (influenza A virus H1N1) (UniProt A8C8J4)
[2] = target: miniHA (A/Brisbane/59/2007) (influenza A virus H1N1) (UniProt A8C8J4)
[3] = target: miniHA cluster1 (A/Brisbane/59/2007) (influenza A virus H1N1) (UniProt A8C8J4)
[4] = target: H3-mini2-cl9 + 10 + 11 + 12-GCN4 (influenza A virus H3N2) (UniProt O11283)
[5] = target: HK68 H3m2-cl9 + 10 + 11 + 12 (influenza A virus H3N2) (UniProt Q91MA7)
[6] = target: HK68 H3m2-cl9 + 10 + 11 + 12-GCN4 (influenza A virus H3N2) (UniProt Q91MA7)
[7] = target: HK68 H3m2-cl9 + 10 + 11 + 12-tri (influenza A virus H3N2) (UniProt Q91MA7)
[8] = target: HK68 H3m2-cl9 + 10 + 12 (influenza A virus H3N2) (UniProt Q91MA7)

Row | Substance | MFI relative to full-length HA [1] [%] | % positive cells [2] [%] | % positive cells [3] [%] | MFI relative to full-length HA [3] [%] | % positive cells [4] [%] | % positive cells [5] [%] | % positive cells [6] [%] | % positive cells [7] [%] | % positive cells [8] [%]
1 | CR6254 (antibody) | 50 | 1 to 3 | 60 | 10 | – | – | – | – | –
2 | CR6328 (antibody) | – | 1 to 3 | 60 | – | – | – | – | – | –
3 | CR8020 (antibody) | – | – | – | – | 60 | > 15 | > 15 | > 15 | > 15
4 | CR8043 (antibody) | – | – | – | – | – | > 15 | > 15 | > 15 | > 15
